Data reported in publication PMC7205207, “Modeling and mitigation of high-concentration antibody viscosity through structure-based computer-aided protein design” (PLoS ONE, 2020).
Residue numbers refer to the chain shown, from its start. Names may count otherwise.

B1: R1-016 (antibody, V domains shown)
VH: EVQLLQSGGGLVKPGGSLRLSCAASGFTFSSYAMSWVRQAPGKGLEWVSYISDDGSLKYYADSVKGRFTISRDNSKNTLYLQMNSLRAEDTAVYYCARHPYWYGGQLDLWGQGTLVTVSS
VL: SYELTQPPSVSVSPGQTASITCSGDSLGSYFVHWYQQKPGQSPVLVIYDDSKRPSGIPERFSGSNSGNTATLTISGTQAMDEADYYCSAFTHNSDVFGGGTKLTVL
notes: only the variable regions are written; source: HEK293, transient, purified from conditioned medium (protein A, TMAE, HIC)
B2: R2-020 (antibody, V domains shown)
VH: B1 VH
VL: B1 VL with E3V, S13A, Q16K, S19R, D50N
notes: as the VH of m20 (R2-001_HC); as the VL of m20 (R2-001_LC) with D51N (Kabat); only the variable regions are written; source: HEK293, transient, purified from conditioned medium (protein A, TMAE, HIC)
B3: R2-001 (antibody, V domains shown)
VH: B1 VH
VL: B1 VL with E3V, S13A, Q16K, S19R
notes: R2-001_HC: as the VH of m17 (R1-016), on which R2-001 was built; R2-001_LC: as the VL of m17 (R1-016) with FW1 changed to that of IGLV3-21*01; only the variable regions are written; also called round 2 parental R2-001; R2-001_HC with R2-001_LC; source: HEK293, transient, purified from conditioned medium (protein A, TMAE, HIC)
B4: R2-006 (antibody, V domains shown)
VH: B1 VH
VL: B1 VL with E3V, S13A, Q16K, S19R, S51K
notes: as the VH of m20 (R2-001_HC); as the VL of m20 (R2-001_LC) with S52K (Kabat); only the variable regions are written; source: HEK293, transient, purified from conditioned medium (protein A, TMAE, HIC)
B5: R2-017 (antibody, V domains shown)
VH: B1 VH with D108Y
VL: B1 VL with E3V, S13A, Q16K, S19R
notes: as the VH of m20 (R2-001_HC) with D101Y; as the VL of m20 (R2-001_LC); only the variable regions are written; source: HEK293, transient, purified from conditioned medium (protein A, TMAE, HIC)
B6: R1-008 (antibody, V domains shown)
VH: B1 VH with Q6E, K13Q, R98K
VL: B1 VL with E3V, K52N
notes: VH of AB-001 (AB-001_HC); Kabat position; only the variable regions are written; source: HEK293, transient, purified from conditioned medium (protein A, TMAE, HIC)
B7: R2-019 (antibody, V domains shown)
VH: B1 VH
VL: B1 VL with E3V, S13A, Q16K, S19R, D49L
notes: as the VH of m20 (R2-001_HC); as the VL of m20 (R2-001_LC) with D50L (Kabat); only the variable regions are written; source: HEK293, transient, purified from conditioned medium (protein A, TMAE, HIC)
B8: R1-014 (antibody, V domains shown)
VH: B1 VH
VL: B1 VL with T17R, K52N
notes: as for B1
B9: R2-011 (antibody, V domains shown)
VH: B1 VH with Q106K
VL: B1 VL with E3V, S13A, Q16K, S19R
notes: as the VH of m20 (R2-001_HC) with Q100bK; as the VL of m20 (R2-001_LC); only the variable regions are written; source: HEK293, transient, purified from conditioned medium (protein A, TMAE, HIC)
B10: R1-002 (antibody, V domains shown)
VH: B1 VH with K13Q
VL: B1 VL with K52N
notes: VL of AB-001 (AB-001_LC); only the variable regions are written; source: HEK293, transient, purified from conditioned medium (protein A, TMAE, HIC)
B11: R2-008 (antibody, V domains shown)
VH: B1 VH
VL: B1 VL with E3V, S13A, Q16K, S19R, S66K
notes: as the VH of m20 (R2-001_HC); as the VL of m20 (R2-001_LC) with S67K (Kabat); only the variable regions are written; source: HEK293, transient, purified from conditioned medium (protein A, TMAE, HIC)
B12: R1-007 (antibody, V domains shown)
VH: B1 VH
VL: B1 VL with K52N
notes: as for B10
B13: R1-013 (antibody, V domains shown)
VH: B1 VH with K13Q
VL: B1 VL with T17R, K52N
notes: as for B1
B14: R1-010 (antibody, V domains shown)
VH: B1 VH with Q6E, K13Q, R98K
VL: B1 VL
notes: VH of AB-001 (AB-001_HC); only the variable regions are written; source: HEK293, transient, purified from conditioned medium (protein A, TMAE, HIC)
B15: R1-003 (antibody, V domains shown)
VH: B1 VH with Q6E
VL: B1 VL with K52N
notes: as for B10
B16: R2-004 (antibody, V domains shown)
VH: B1 VH
VL: B1 VL with E3V, S13A, Q16K, S19R, Y48H
notes: as the VH of m20 (R2-001_HC); as the VL of m20 (R2-001_LC) with Y49H (Kabat); only the variable regions are written; source: HEK293, transient, purified from conditioned medium (protein A, TMAE, HIC)
B17: R1-006 (antibody, V domains shown)
VH: B1 VH with Q6E, K13Q, Q106R
VL: B1 VL with K52N
notes: as for B10
B18: R1-015 (antibody, V domains shown)
VH: B1 VH
VL: B1 VL with K52N, D95N
notes: as for B1
B19: R1-009 (antibody, V domains shown)
VH: B1 VH with Q6E, K13Q, R98K
VL: B1 VL with T17R, K52N
notes: as for B14
B20: R2-022 (antibody, V domains shown)
VH: B1 VH
VL: B1 VL with E3V, S13A, Q16K, S19R, D95N
notes: as the VH of m20 (R2-001_HC); as the VL of m20 (R2-001_LC) with D96N (Kabat); only the variable regions are written; source: HEK293, transient, purified from conditioned medium (protein A, TMAE, HIC)
B21: R2-013 (antibody, V domains shown)
VH: B1 VH with D53N
VL: B1 VL with E3V, S13A, Q16K, S19R
notes: as the VH of m20 (R2-001_HC) with D52aN; as the VL of m20 (R2-001_LC); only the variable regions are written; source: HEK293, transient, purified from conditioned medium (protein A, TMAE, HIC)
B22: R2-014 (antibody, V domains shown)
VH: B1 VH with D54Q
VL: B1 VL with E3V, S13A, Q16K, S19R
notes: as the VH of m20 (R2-001_HC) with D53Q; as the VL of m20 (R2-001_LC); only the variable regions are written; source: HEK293, transient, purified from conditioned medium (protein A, TMAE, HIC)
B23: R2-018 (antibody, V domains shown)
VH: B1 VH
VL: B1 VL with E3V, S13A, Q16K, S19R, D25N
notes: as the VH of m20 (R2-001_HC); as the VL of m20 (R2-001_LC) with D26N (Kabat); only the variable regions are written; source: HEK293, transient, purified from conditioned medium (protein A, TMAE, HIC)
B24: R2-012 (antibody, V domains shown)
VH: B1 VH with D53K
VL: B1 VL with E3V, S13A, Q16K, S19R
notes: as the VH of m20 (R2-001_HC) with D52aK; as the VL of m20 (R2-001_LC); only the variable regions are written; source: HEK293, transient, purified from conditioned medium (protein A, TMAE, HIC)
B25: R2-015 (antibody, V domains shown)
VH: B1 VH with D62N
VL: B1 VL with E3V, S13A, Q16K, S19R
notes: as the VH of m20 (R2-001_HC) with D61N; as the VL of m20 (R2-001_LC); only the variable regions are written; source: HEK293, transient, purified from conditioned medium (protein A, TMAE, HIC)
B26: R2-016 (antibody, V domains shown)
VH: B1 VH with D108N
VL: B1 VL with E3V, S13A, Q16K, S19R
notes: as the VH of m20 (R2-001_HC) with D101N; as the VL of m20 (R2-001_LC); only the variable regions are written; source: HEK293, transient, purified from conditioned medium (protein A, TMAE, HIC)
B27: R1-017 (antibody, V domains shown)
VH: B1 VH with Q6E
VL: B1 VL with T17R, K52N
notes: as for B1
B28: R1-005 (antibody, V domains shown)
VH: B1 VH with Q6E, K13Q, D53N
VL: B1 VL with K52N
notes: as for B10
B29: R1-011 (antibody, V domains shown)
VH: B1 VH with Q6E, K13Q, R98K
VL: B1 VL with K52N, D95N
notes: as for B14
B30: R2-007 (antibody, V domains shown)
VH: B1 VH
VL: B1 VL with E3V, S13A, Q16K, S19R, S64K
notes: as the VH of m20 (R2-001_HC); as the VL of m20 (R2-001_LC) with S65K (Kabat); only the variable regions are written; source: HEK293, transient, purified from conditioned medium (protein A, TMAE, HIC)
B31: R2-009 (antibody, V domains shown)
VH: B1 VH
VL: B1 VL with E3V, S13A, Q16K, S19R, G67K
notes: as the VH of m20 (R2-001_HC); as the VL of m20 (R2-001_LC) with G68K (Kabat); only the variable regions are written; source: HEK293, transient, purified from conditioned medium (protein A, TMAE, HIC)
B32: R1-012 (antibody, V domains shown)
VH: B1 VH
VL: B1 VL with E3V, K52N
notes: Kabat position; only the variable regions are written; source: HEK293, transient, purified from conditioned medium (protein A, TMAE, HIC)
B33: R2-005 (antibody, V domains shown)
VH: B1 VH
VL: B1 VL with E3V, S13A, Q16K, S19R, Y48R
notes: as the VH of m20 (R2-001_HC); as the VL of m20 (R2-001_LC) with Y49R (Kabat); only the variable regions are written; source: HEK293, transient, purified from conditioned medium (protein A, TMAE, HIC)
B34: R1-018 (antibody, V domains shown)
VH: B1 VH with Q6E, K13Q, Q106R
VL: B1 VL with T17R, K52N
notes: as for B1
B35: R1-004 (antibody, V domains shown)
VH: B1 VH with Q6E, K13Q, A23R
VL: B1 VL with K52N
notes: as for B10

target: T1, human PDGF-BB (platelet derived growth factor B homodimer) (human, UniProt P01127); experiment: SPR; Biacore T200, full kinetics; antibody captured by anti-human IgG on a CM5 chip; human PDGF-BB at 20, 10, 5, 2.5 and 1.25 nM, 50 s injection; HBS-EP+ N; 25 C; 1:1 Langmuir fit; settings: both partners purified
T1 construct: Platelet derived growth factor B, human, homodimer, bought from PeproTech; the printed catalogue number may stand for 100-14B; source: bought: PeproTech, Catalog 100-148
T1 sequence (P01127 82-190): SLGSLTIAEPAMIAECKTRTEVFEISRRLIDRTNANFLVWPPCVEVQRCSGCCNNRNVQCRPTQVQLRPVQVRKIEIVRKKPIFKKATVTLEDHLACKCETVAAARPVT

Binder | Kd [nM] | koff [s⁻¹] | kon [M⁻¹ s⁻¹]
B1 | 0.0743 ± 0.0137 | 0.000357 | 4.88e+06
B2 | 0.299 ± 0.00683 | 0.00061 | 2.04e+06
B3 | 0.102 ± 0.0323 | 0.000292 | 3.09e+06
B4 | 0.0888 ± 0.0295 | 0.000336 | 3.97e+06

target: T1, human PDGF-BB (platelet derived growth …); experiment: SPR; Biacore T200, off-rate screen; antibody captured (~70 to 100 RU) by anti-human IgG amine-coupled to a CM5 chip; human PDGF-BB injected at a single 2.5 nM for 170 s, dissociation 300 s; HBS-EP+ N (10 mM HEPES, 500 mM NaCl, 3 mM EDTA, 0.05% Tween20, pH 7.4); 25 C; settings: both partners purified

Binder | koff [s⁻¹]
B1 | 0.000289
B5 | 0.000673
B6 | 0.000533
B7 | 0.000673
B8 | 0.000405
B9 | 0.000414
B10 | 0.00038
B11 | 0.000396
B12 | 0.000282
B13 | 0.000297
B14 | 0.000372
B15 | 0.000443
B16 | 0.000439
B17 | 0.000314
B18 | 0.000752
B2 | 0.000386
B19 | 0.000393
B20 | 0.000361

Binder | koff [s⁻¹]
B21 | 0.000344
B22 | 0.000396
B23 | 0.000386
B24 | 0.000347
B3 | 0.000417
B25 | 0.000834
B26 | 0.000266
B4 | 0.000366
B27 | 0.000471
B28 | 0.000381
B29 | 0.00086
B30 | 0.000401
B31 | 0.000265
B32 | 0.000304
B33 | 0.000348
B34 | 0.000419
B35 | 0.000258

test system: not listed separately; experiment: AC-SINS; self-association assay, as in Avery et al. [35]; score = smoothed max absorbance of the antibody sample minus that of the average blank (PBS); scores >=11 considered high; settings: other: AC-SINS

Binder | AC-SINS Score
B1 | 24
B2 | 4
B3 | 24
B4 | 25

target: T1, human PDGF-BB (platelet derived growth …); experiment: SPR; Biacore T200, full kinetics; antibody captured by anti-human IgG on a CM5 chip; human PDGF-BB at 20, 10, 5, 2.5 and 1.25 nM, 50 s injection; HBS-EP+ N; 25 C; 1:1 Langmuir fit; settings: both partners purified; remark: another data set of the same source

Binder | Kd [nM]
B4 | 0.103
